Assay results published in US20210253711A1 (CULLINAN MICA, published 2021).

Key:
[1] = biological target: T1, Recombinant MICA*08 protein; experiment: ELISA, coated MICA*08, OD 450 nm
T1 construct: Coated on ELISA plates
T1 sequence (Q29983 whole entry, looked up): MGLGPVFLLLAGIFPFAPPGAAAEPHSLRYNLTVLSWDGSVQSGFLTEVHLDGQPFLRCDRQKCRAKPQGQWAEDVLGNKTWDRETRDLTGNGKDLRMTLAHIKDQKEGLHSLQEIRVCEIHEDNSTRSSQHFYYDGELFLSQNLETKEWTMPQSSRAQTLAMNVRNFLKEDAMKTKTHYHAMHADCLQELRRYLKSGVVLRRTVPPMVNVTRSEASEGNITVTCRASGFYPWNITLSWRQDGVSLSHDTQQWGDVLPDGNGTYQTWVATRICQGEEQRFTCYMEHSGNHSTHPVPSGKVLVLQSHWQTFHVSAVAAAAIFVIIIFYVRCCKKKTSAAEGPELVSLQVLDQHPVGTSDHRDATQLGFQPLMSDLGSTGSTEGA
Experimental: (§1) Recombinant MICA*01, MICA*02, MICA*04, MICA*08, MICA*09, and MICB proteins were diluted to 1 μg/ml in 50 mM sodium carbonate buffer, pH 9.6, and coated onto high binding 96-well microplates (Corning #9018), 100 ng in 100 ul per well. The following morning, coated ELISA plates were washed three times with TBS-Tween-20, pH 7.4 and then blocked in SuperBlock T20 Blocking Buffer (Pierce #37536). After blocking, ELISA plates were washed once with TBS-T and incubated with serially diluted anti-MICA antibody (0-1 μg/ml) for approximately two hours at room temperature. Following the incubation, ELISA plates were washed three times with TBS-T and then incubated with Goat anti-Mouse IgG (H+L)-HRP conjugate (ThermoFisher Scientific #626520) for 45 minutes at room temperature with shaking (˜400 rpm). After the incubation, ELISA plates were washed three times with TBS-T and incubated with Super Sensitive Liquid Substrate TMB (Sigma #T4444), 100 ul per well, until color development was sufficient. The reaction was stopped with 1N sulfuric acid, 100 ul per well. Optical density (OD) values were measured at 450 nm using a microplate reader.

[2] = biological target: T2, Recombinant MICA*09 protein; experiment: ELISA, coated MICA*09, OD 450 nm
T2 construct: Coated on ELISA plates
T2 sequence (Q29983 whole entry, species assumed, looked up): T1 sequence (Q29983 whole entry, looked up)
Experimental: as §1

[3] = biological target: T3, Recombinant MICA*04 protein; experiment: ELISA, coated MICA*04, OD 450 nm
T3 construct: Coated on ELISA plates
T3 sequence (Q29983 whole entry, looked up): T1 sequence (Q29983 whole entry, looked up)
Experimental: as §1

[4] = biological target: T4, Recombinant MICA*01 protein (Homo sapiens (Human), UniProt Q29983 24-307); experiment: ELISA, coated MICA*01, OD 450 nm
T4 construct: Coated on ELISA plates
T4 sequence: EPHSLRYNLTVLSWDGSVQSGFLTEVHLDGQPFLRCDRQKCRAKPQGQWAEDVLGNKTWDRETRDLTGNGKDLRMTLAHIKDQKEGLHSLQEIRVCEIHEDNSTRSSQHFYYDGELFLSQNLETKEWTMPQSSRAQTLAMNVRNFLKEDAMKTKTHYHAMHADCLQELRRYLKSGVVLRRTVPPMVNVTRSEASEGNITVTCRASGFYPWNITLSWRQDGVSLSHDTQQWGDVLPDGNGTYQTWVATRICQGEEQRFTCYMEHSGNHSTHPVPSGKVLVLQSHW
Experimental: as §1

[5] = biological target: T5, Recombinant MICA*02 protein; experiment: ELISA, coated MICA*02, OD 450 nm
T5 construct: Coated on ELISA plates
T5 sequence (Q29983 whole entry, species assumed, looked up): T1 sequence (Q29983 whole entry, looked up)
Experimental: as §1

Recombinant MICB protein = biological target: T6, Recombinant MICB protein (UniProt Q29980 23-298, limits assumed); experiment: ELISA, coated MICB, OD 450 nm
T6 construct: Coated on ELISA plates
T6 sequence (looked up): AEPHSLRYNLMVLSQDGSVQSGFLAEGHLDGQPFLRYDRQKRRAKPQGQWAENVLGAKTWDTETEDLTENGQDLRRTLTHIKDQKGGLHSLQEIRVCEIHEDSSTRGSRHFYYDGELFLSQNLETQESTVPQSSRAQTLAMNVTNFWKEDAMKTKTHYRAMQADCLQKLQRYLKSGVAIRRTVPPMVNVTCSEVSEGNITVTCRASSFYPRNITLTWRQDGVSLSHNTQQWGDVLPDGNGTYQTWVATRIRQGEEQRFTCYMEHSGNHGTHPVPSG
Experimental: as §1

Measured: EC50 (read off the curve)

B1: 3F9.E4 (antibody, V domains shown)
VH: EVQLQESGEGLVKPGGSLKLSCAASGFTFSNYAMSWVRQTPEKRLEWVAYISPGGDYIYYADTVKGRFTISRDNARNTLYLQMSSLKSEDTAMYYCTTDRRHYGSYAMDYWGQGISVTVSS
VL: DIVMTQAAPSVPVTPGESVSISCRSSKSLLHSNGNTYLYWFLQRPGQSPQLLIYRMSNLASGVPDRFSGSGSGTAFTLRISRVEAEDVGVYYCMQHLEYPFTFGSGTKLEIK
notes: the mAb was captured on anti-mouse IgG Fc biosensors and detected with goat anti-mouse IgG, so it is a mouse IgG; also called anti-MICA/B mAb; anti-MICA antibody
~0.03 µg/mL: [1] | [2] | [3] | [4] | [5] | Recombinant MICB protein

B2: 16F10.C12 (antibody, V domains shown)
VH: EVQLQESGPGLVAPSQSLSITCTVSGFSLTAFGVNWVRQPPGKGLEWLGMIWGDGNTDYNSTLRSRLSISKDNSKSQVFLKLNSLQTDDTARYFCARETYYGNYAGLGYWGQGTLVTVSA
VL: QIVLTQSPAIMSASIGERVTMTCTASSSVSSNYLHWYQQKPRSSPKLWIYTTSNLASGVPTRFSGSGSGTSYSLTISSMEAEDAATYYCHQFHRSPFTFGSGTKLEIK
notes: as for B1
~0.03 µg/mL: [2] | [4] | [5] | Recombinant MICB protein
